Patent publication US20190194291A1 (Hoffmann-La Roche, published 2019)
Numbering of substitutions follows the chain as printed.

T1: human CEA expressed on MKN45 cells (human, UniProt P06731 35-685)
T1 construct: also called CEA-expressing human gastric adenocarcinoma cells (MKN45)
T1 sequence: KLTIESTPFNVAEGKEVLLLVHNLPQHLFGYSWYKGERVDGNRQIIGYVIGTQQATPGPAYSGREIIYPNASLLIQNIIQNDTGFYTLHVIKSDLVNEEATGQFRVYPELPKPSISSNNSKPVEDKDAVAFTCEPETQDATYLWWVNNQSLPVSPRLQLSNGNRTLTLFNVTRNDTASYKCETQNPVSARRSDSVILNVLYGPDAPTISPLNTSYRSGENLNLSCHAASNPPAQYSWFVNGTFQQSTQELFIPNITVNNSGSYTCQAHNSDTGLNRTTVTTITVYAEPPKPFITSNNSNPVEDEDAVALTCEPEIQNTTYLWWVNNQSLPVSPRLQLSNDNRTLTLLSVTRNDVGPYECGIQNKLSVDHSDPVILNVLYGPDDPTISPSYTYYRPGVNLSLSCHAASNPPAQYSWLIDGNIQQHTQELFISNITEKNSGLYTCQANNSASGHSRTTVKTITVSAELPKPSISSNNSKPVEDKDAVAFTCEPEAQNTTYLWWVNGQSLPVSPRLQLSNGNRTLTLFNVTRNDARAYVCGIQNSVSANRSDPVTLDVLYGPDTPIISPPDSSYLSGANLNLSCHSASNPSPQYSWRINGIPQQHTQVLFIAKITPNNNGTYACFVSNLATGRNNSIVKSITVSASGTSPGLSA

T2: cyCD19 ECD (cynomolgus, UniProt A0A2K5W8L9 20-292)
T2 construct: extracellular domain; also called cynomolgus CD19 extracellular domain; cynomolgus CD19
T2 sequence: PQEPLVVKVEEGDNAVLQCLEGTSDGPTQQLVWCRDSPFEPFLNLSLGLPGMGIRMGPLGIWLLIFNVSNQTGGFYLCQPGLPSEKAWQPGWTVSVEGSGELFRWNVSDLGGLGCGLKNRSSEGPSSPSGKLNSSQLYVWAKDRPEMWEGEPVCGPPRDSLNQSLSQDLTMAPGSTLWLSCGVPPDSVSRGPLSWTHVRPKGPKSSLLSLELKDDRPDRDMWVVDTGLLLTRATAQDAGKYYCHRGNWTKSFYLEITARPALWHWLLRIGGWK

T3: huCD19 ECD (human, UniProt P15391 20-291)
T3 construct: also called human CD19 extracellular domain
T3 sequence: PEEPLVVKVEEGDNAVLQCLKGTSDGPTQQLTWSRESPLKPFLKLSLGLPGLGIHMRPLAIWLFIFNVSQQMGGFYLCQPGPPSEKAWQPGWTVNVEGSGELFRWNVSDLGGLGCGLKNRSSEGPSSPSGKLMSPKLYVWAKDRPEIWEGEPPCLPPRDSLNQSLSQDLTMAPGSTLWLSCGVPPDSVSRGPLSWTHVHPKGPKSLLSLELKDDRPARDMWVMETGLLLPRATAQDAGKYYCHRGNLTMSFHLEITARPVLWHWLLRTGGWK

T4: human CD19 (antigen of Table 9, construct not stated) (human, UniProt P15391 20-291, limits assumed)
T4 sequence: T3 sequence

B1: Humanized variant 1 of T84.66 IgG (T84.66-LCHA) (antibody, V domains shown)
VH: QVQLVQSGAEVKKPGSSVKVSCKASGFNIKDTYMHWVRQAPGQGLEWMGRIDPANGNSKYVPKFQGRVTITADTSTSTAYMELSSLRSEDTAVYYCAPFGYYVSDYAMAYWGQGTLVTVSS
VL: EIVLTQSPATLSLSPGERATLSCRAGESVDIFGVGFLHWYQQKPGQAPRLLIYRASNRATGIPARFSGSGSGTDFTLTISSLEPEDFAVYYCQQTNEDPYTFGQGTKLEIK
notes: Tested as IgG
B2: wild-type humanized anti-human CD19 antibody 8B8 (antibody, V domains shown)
VH: QVQLVQSGAEVKKPGASVKVSCKASGYTFTDYIMHWVRQAPGQGLEWMGYINPYNDGSKYTEKFNGRVTMTSDTSISTAYMELSRLRSDDTAVYYCARGTYYYGSALFDYWGQGTTVTVSS
VL: DIVMTQTPLSLSVTPGQPASISCKSSQSLENSNGNTYLNWYLQKPGQSPQLLIYRVSKRFSGVPDRFSGSGSGTDFTLKISRVEAEDVGVYYCLQLTHVPYTFGQGTKLEIK
B3: parental humanized clone 8B8 (Fab in bacterial supernatant) (Fab, V domains shown)
VH: B2 VH with N65Q
VL: B2 VL
notes: Soluble Fab with Flag tag from a phagemid, tested as bacterial supernatant; also called Parental 8B8; humanized parental clone 8B8
B4: humanized anti-human CD19 antibody clone 8B8-018 (antibody, V domains shown)
VH: B2 VH with N65Q
VL: B2 VL with S32P
B5: affinity-matured 8B8-derived clone 2B11 (Fab in bacterial supernatant) (Fab, V domains shown)
VH: B2 VH with N65Q, S105P, A106Q
VL: B2 VL with N31T, N33T, N35T, T97L, H98E, V99D
notes: Soluble Fab with Flag tag, tested as bacterial supernatant; also called 8B8-2B11

Tests used:
[1] = molecular target: T1, human CEA expressed on MKN45 cells; assay: flow cytometry on CEA-expressing MKN45 cells, PE anti-human IgG Fc detection
Protocol: The binding of different humanized variants of T84.66 IgG was tested on CEA-expressing human gastric adenocarcinoma cells (MKN45, DSMZ ACC 409).
Cells were harvested, counted, checked for viability and re-suspended at 2×10⁶ cells/ml in FACS buffer (100 μl PBS 0.1% BSA). […] Binding curves and EC50 values were obtained and calculated using GraphPadPrism5.

[2] = molecular target: T2, cyCD19 ECD; assay: binding to CD19 ECD, method not stated
[3] = molecular target: T5, monomeric human CD19 antigen Fc(kih) fusion molecule (human, UniProt P0DOX5 223-449 = IgG part); assay: SPR (ProteOn XPR36): Fab from bacterial supernatant captured on anti-human Fab antibody, monomeric CD19-Fc 150-6 nM as analyte, 1:1 Langmuir fit
T5 construct: Heterodimeric Fc fusion with a single copy of the CD19 ectodomain; also called human CD19 Fc(kih); Recombinant human CD19
Protocol: In order to further characterize the ELISA-positive clones, the off-rate was measured by surface plasmon resonance and compared with the parental humanized clone 8B8.
For this experiment, 7000 RU of polyclonal anti-human Fab antibody were immobilized on all 6 channels of a GLM chip by Amine coupling (NaAcetate pH4.5, 25 μl/min, 240 s) (vertical orientation). Each antibody-containing bacterial supernatant was filtered and 2-fold diluted with PBS, and then injected for 360 s at 25 μl/minute to achieve immobilization levels of between 100 and 400 response units (RU) in vertical orientation. […] Regeneration was performed by two pulses of 10 mM glycine pH 1.5 and 50 mM NaOH for 30 s at 90 ul/min (horizontal orientation). Dissociation rate constants (koff) were calculated using a simple one-to-one Langmuir binding model in ProteOn Manager v3.1 software by simultaneously fitting the sensorgrams. […] The variable domains of the corresponding phagemids were sequenced.

[4] = molecular target: T3, huCD19 ECD; assay: binding to CD19 ECD, method not stated
[5] = molecular target: T4, human CD19 (antigen of Table 9, …); assay: listed under the BIAcore KD; taken as half-life of the complex
[6] = molecular target: T4, human CD19 (antigen of Table 9, …); assay: BIAcore (SPR), format not stated

Row | Binder | EC50 [2] [µg/mL] | koff [3] [s⁻¹] | also measured
1 | B1 | – | – | EC50 [1]: 1.5 µg/mL
2 | B2 | 0.313 | – | –
3 | B3 | – | 0.000301 | –
4 | B4 | 0.255 | – | EC50 [4]: 0.084 µg/mL; t1/2 [5]: 43.6 min; Kd [6]: 6 nM
5 | B5 | – | 4.37e-06 | –
